Measurements: article PMC11271386 (Analytical and Bioanalytical Chemistry, 2024)
Positions count from the first letter of the chain named.

T1: ^FlagDNAJB8^H31Q (human, UniProt Q8NHS0 1-232, H31Q)
T1 construct: DNAJB8, human Class B Hsp40, with the J-domain mutation H31Q; source: HEK293T, transfected (calcium phosphate), in lysate
T1 sequence (looked up): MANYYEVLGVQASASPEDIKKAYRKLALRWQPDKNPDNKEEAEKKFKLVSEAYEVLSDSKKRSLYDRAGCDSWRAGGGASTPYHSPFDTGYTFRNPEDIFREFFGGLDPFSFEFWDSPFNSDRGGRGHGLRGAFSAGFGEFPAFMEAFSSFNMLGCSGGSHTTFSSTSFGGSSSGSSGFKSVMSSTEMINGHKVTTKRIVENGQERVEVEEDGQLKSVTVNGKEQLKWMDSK

T2: ^FlagDNAJB8^WT (human, UniProt Q8NHS0 1-232)
T2 construct: DNAJB8, human Class B Hsp40 (J-domain protein); also called Hsp40 DNAJB8; source: HEK293T, transfected (calcium phosphate), in lysate
T2 sequence (looked up): T1 sequence (looked up) with Q31H

B1: PFDN1 (natural protein, human (endogenous in HEK293T), UniProt O60925 1-122, looked up)
chain: MAAPVDLELKKAFTELQAKVIDTQQKVKLADIQIEQLNRTKKHAHLTDTEIMTLVDETNMYEGVGRMFILQSKEAIHSQLLEKQKIAEEKIKELEQKKSYLERSVKEAEDNIREMLMARRAQ
notes: PFDN1, prefoldin β subunit, human; also called prefoldin β subunit; source: endogenous, HEK293T lysate
B2: 14–3-3θ/YWHAQ (natural protein, human (endogenous in HEK293T), UniProt P27348 1-245, looked up)
chain: MEKTELIQKAKLAEQAERYDDMATCMKAVTEQGAELSNEERNLLSVAYKNVVGGRRSAWRVISSIEQKTDTSDKKLQLIKDYREKVESELRSICTTVLELLDKYLIANATNPESKVFYLKMKGDYFRYLAEVACGDDRKQTIDNSQGAYQEAFDISKKEMQPTHPIRLGLALNFSVFYYEILNNPELACTLAKTAFDEAIAELDTLNEDSYKDSTLIMQLLRDNLTLWTSDSAGEECDAAEGAEN
notes: 14-3-3 theta (YWHAQ), human; source: endogenous, HEK293T lysate

Assays:
^FlagDNAJB8^H31Q = target: T1, ^FlagDNAJB8^H31Q; test: affinity purification with mass spectrometry; TMT-AP-MS comparing four conditions: ^FlagDNAJB8 WT vs. H31Q, with or without 1 mM DSP crosslinking of the cells before lysis; RIPA lysis and washes, M2 anti-Flag beads; crosslinks reversed with TCEP; three biological replicates; conditions: partners not purified
^FlagDNAJB8^WT = target: T2, ^FlagDNAJB8^WT; test: as above; conditions: partners not purified

Binder | fold change of recovery with DNAJB8^H31Q compared to DNAJB8^WT, −DSP (^FlagDNAJB8^H31Q) [fold] | fold change recovery with DSP crosslinking against without (^FlagDNAJB8^WT) [%] | fold change recovery with DSP crosslinking against without (^FlagDNAJB8^H31Q) [%]
B1 | 3.4 ± 0.9 |  | 
B2 |  | 4.8 ± 0.7 | 3.2 ± 0.8
